T1: huSOX3 with C-terminal 6×His-tag, produced by Biointron (human, UniProt P41225 1-446)
T1 sequence: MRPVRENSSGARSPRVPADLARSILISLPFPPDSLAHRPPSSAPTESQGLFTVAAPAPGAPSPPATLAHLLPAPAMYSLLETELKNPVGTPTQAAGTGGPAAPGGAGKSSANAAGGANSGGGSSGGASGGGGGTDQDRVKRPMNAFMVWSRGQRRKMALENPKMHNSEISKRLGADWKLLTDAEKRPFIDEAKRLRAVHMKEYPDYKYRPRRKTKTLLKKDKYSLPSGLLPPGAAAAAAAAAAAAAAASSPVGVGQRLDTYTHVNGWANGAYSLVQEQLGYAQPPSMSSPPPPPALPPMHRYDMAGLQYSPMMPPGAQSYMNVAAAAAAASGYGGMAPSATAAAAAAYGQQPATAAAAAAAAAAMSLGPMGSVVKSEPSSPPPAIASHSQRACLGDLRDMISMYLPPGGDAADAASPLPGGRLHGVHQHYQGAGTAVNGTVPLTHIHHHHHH


Biological target: huSOX2.V5 (huSOX2 with a V5-tag at the C-terminus) (human, UniProt P48431 1-317)
Sequence (P48431 other isoform, or with tags, fused parts or gaps): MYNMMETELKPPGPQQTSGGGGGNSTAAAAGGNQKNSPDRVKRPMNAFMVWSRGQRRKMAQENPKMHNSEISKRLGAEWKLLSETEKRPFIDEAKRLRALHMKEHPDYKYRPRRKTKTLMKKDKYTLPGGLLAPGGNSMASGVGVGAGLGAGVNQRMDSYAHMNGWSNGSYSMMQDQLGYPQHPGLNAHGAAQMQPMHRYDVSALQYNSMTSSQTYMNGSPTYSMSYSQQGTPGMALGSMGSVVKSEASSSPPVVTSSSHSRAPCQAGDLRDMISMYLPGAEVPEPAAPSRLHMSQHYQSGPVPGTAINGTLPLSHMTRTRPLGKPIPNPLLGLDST
Test: cell-based or functional assay

Row | Binder | SOX2 degradation capability compared to the control group (Mock) (HEK-293 cells) [%]
1 | 3A2.005 (Flag-tag - 3A2 - GS linker - SPOP 167-374) (other) DYKDDDDKTREVQLVESGGEQVQPGSSLKLSCSVSGLMISGHAMSWVRQVPGAGPEWVAVDNPGGKKNYIDSVAGRFTIARDNDANSLSLVMNGLRPEDTARYFCARVLSFKIYEGDKWALEWDYRGPGTQVTVSSGSSVNISGQNTMNMVKVPECRLADELGGLWENSRFTDCCLCVAGQEFQAHKAILAARSPVFSAMFEHEMEESKKNRVEINDVEPEVFKEMMCFIYTGKAPNLDKMADDLLAAADKYALERLKVMCEDALCSNLSVENAAEILILADLHSADQLKTQAVDFINYHASDVLETSGWKSMVVSHPHLVAEAYRSLASAQCPFLGPPRKRLKQS | ≥ 70
2 | 3A2.011 (Flag-tag - TRIM21 2-85 - GS linker - 3A2) (other) DYKDDDDKTRASAARLTMMWEEVTCPICLDPFVEPVSIECGHSFCQECISQVGKGGGSVCPVCRQRFLLKNLRPNRQLANMVNNLKEISQEAREGSEVQLVESGGEQVQPGSSLKLSCSVSGLMISGHAMSWVRQVPGAGPEWVAVDNPGGKKNYIDSVAGRFTIARDNDANSLSLVMNGLRPEDTARYFCARVLSFKIYEGDKWALEWDYRGPGTQVTVSS | ≥ 70
3 | 3A2.012 (Flag-tag - 3A2 - GS linker - RNF4 71-190) (other) DYKDDDDKTREVQLVESGGEQVQPGSSLKLSCSVSGLMISGHAMSWVRQVPGAGPEWVAVDNPGGKKNYIDSVAGRFTIARDNDANSLSLVMNGLRPEDTARYFCARVLSFKIYEGDKWALEWDYRGPGTQVTVSSGSDERRRPRRNARRLPQDHADSCVVSSDDEELSRDRDVYVTTHTPRNARDEGATGLRPSGTVSCPICMDGYSEIVQNGRLIVSTECGHVFCSQCLRDSLKNANTCPTCRKKINHKRYHPIYI | ≥ 70
4 | 3A2.007 (Flag-tag - 3A2 - GS linker - CHIP 128-303) (other) DYKDDDDKTREVQLVESGGEQVQPGSSLKLSCSVSGLMISGHAMSWVRQVPGAGPEWVAVDNPGGKKNYIDSVAGRFTIARDNDANSLSLVMNGLRPEDTARYFCARVLSFKIYEGDKWALEWDYRGPGTQVTVSSGSRLNFGDDIPSALRIAKKKRWNSIEERRIHQESELHSYLSRLIAAERERELEECQRNHEGDEDDSHVRAQQACIEAKHDKYMADMDELFSQVDEKRKKRDIPDYLCGKISFELMREPCITPSGITYDRKDIEEHLQRVGHFDPVTRSPLTQEQLIPNLAMKEVIDAFISENGWVEDY | ≥ 70

Biological target: T2, huSOX2 protein with N-terminal Halo tag (pHTN vector), expressed in HEK293T cells (human, UniProt P48431 1-317, HaloTag 618 ligand bound to the Halo tag)
T2 construct: Expressed inside HEK293T cells (NanoBRET); not shown: Halo tag
T2 sequence (P48431 whole entry): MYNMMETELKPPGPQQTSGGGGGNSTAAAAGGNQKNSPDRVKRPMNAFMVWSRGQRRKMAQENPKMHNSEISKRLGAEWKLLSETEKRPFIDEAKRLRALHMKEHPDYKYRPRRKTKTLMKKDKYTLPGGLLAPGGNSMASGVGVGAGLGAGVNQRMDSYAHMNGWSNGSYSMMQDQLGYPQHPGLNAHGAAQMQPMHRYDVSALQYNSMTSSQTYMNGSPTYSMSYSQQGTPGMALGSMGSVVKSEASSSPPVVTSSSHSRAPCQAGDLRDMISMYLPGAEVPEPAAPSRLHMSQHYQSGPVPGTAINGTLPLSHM
Test: NanoBRET in HEK293T cells, NanoLuc-VHH and Halo-huSOX2

Row | Binder | binding result
5 | 2E8 with N-terminal NanoLuc tag (pNLF1-N-2E8), expressed in HEK293T cells (VHH, NanoBRET donor construct; not shown: NanoLuc tag) VHH: EVQLVESGGGLVQPGGSLRLSCAASGFTLDYYGMGWFRQAPGKEREFVAAISRSGGSTVYADSVKGRFTISADNSKNTAYLQMNSLKPEDTAVYYCAREVVRGGINYWGQGTLVTVSS | binds
6 | 3H9 with N-terminal NanoLuc tag (pNLF1-N-3H9), expressed in HEK293T cells (VHH, NanoBRET donor construct; not shown: NanoLuc tag) VHH: QVQLVESGGEQVQPGSSLKLSCSVSGLMISGHAMSWVRQVPGAGPEWVAVDNPGGKKNYIDSVAGRFTIARDNDANSLSLVMNGLRPEDTARYFCARVLSFKIYGGDKWALEWDYRGPGTQVTVSS | binds
7 | 3F11 with N-terminal NanoLuc tag (pNLF1-N-3F11), expressed in HEK293T cells (VHH, NanoBRET donor construct; not shown: NanoLuc tag) VHH: DVQLVESGGGLVQPGGSLRLSCATSGFTFSSSTMSWVRQVPGAGPEWVAVDNPGGKKNYIDSVAGRFTIARDNDANSLSLVMNGLRPEDTARYFCARVLSFKIYEGDKWALEWDYRGPGTQVTVSS | binds

Biological target: T3, human SRY-box transcription factor 2 (huSOX2) with C-terminal 6×His-tag, produced by Biointron (human, UniProt P48431 1-317)
T3 construct: also called huSOX2 protein; biotinylated huSOX2 (Biointron)
T3 sequence (P48431 other isoform, or with tags, fused parts or gaps limits assumed): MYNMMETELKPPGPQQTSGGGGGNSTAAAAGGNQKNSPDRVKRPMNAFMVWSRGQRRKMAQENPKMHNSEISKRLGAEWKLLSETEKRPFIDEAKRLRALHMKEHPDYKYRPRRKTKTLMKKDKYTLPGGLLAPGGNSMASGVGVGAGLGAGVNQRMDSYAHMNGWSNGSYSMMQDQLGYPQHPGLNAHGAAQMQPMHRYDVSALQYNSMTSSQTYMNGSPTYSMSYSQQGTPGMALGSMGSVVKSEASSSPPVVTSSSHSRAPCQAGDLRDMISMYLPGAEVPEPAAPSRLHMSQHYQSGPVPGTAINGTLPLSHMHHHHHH
Test: 96-well ELISA screening of individual colonies, 20 ug/mL huSOX2

Row | Binder | binding result
8 | 2E8 (anti-huSOX2 VHH antibody clone) (VHH, Clone from the VHH phage library panning; tested as individual colony in ELISA screening) VHH: EVQLVESGGGLVQPGGSLRLSCAASGFTLDYYGMGWFRQAPGKEREFVAAISRSGGSTVYADSVKGRFTISADNSKNTAYLQMNSLKPEDTAVYYCAREVVRGGINYWGQGTLVTVSS | binds
9 | 1C4 (anti-huSOX2 VHH antibody clone) (VHH, Clone from the VHH phage library panning; tested as individual colony in ELISA screening) VHH: EVQLVESGGGLVQPGGSLRLSCAASGGGFRGNAVMGWFRQAPGKERELVAAIRGSGEDTYYADSVKGRFTISADNSKNTAYLQMNSLKPEDTAVYYCAGGWRRGYFQDWGQGTLVTVSS | binds
10 | 1B9 (anti-huSOX2 VHH antibody clone) (VHH, Clone from the VHH phage library panning; tested as individual colony in ELISA screening) VHH: EVQLVESGGGLVQPGGSLRLSCAASGLTFSTYSMGWFRQAPGKEREFVAAITWNSGRRTYYADSVKGRFTISADNSKNTAYLQMNSLKPEDTAVYYCASRVDDRVWGQGTLVTVSS | binds
11 | 1C2 (anti-huSOX2 VHH antibody clone) (VHH, Clone from the VHH phage library panning; tested as individual colony in ELISA screening) VHH: EVQLVESGGGLVQPGGSLRLSCAASGSTYTTYSMGWFRQAPGKEREFVAAIRWSGGTTYYADSVKGRFTISADNSKNTAYLQMNSLKPEDTAVYYCASRVDDRVWGQGTLVTVSS | binds
12 | 1A5 (anti-huSOX2 VHH antibody clone) (VHH, Clone from the VHH phage library panning; tested as individual colony in ELISA screening) VHH: EVQLVESGGGLVQPGGSLRLSCAASGSTYTTYSMGWFRQAPGKEREFVGAIHWSGGRTYYADSVKGRFTISADNSKNTAYLQMNSLKPEDTAVYYCASRVDDRVWGQGTLVTVSS | binds
13 | 1A9 (anti-huSOX2 VHH antibody clone) (VHH, Clone from the VHH phage library panning; tested as individual colony in ELISA screening) VHH: EVQLVESGGGLVQPGGSLRLSCAASGRTFSTYSMGWFRQAPGKEREFVAAIRWTAGTTYYADSVKGRFTISADNSKNTAYLQMNSLKPEDTAVYYCASRVDDRVWGQGTLVTVSS | binds
14 | 1A11 (anti-huSOX2 VHH antibody clone) (VHH, Clone from the VHH phage library panning; tested as individual colony in ELISA screening) VHH: EVQLVESGGGLVQPGGSLRLSCAASGSTYTTYSMGWFRQAPGKEREFVAAIHWSGGGTYYADSVKGRFTISADNSKNTAYLQMNSLKPEDTAVYYCASRVDDRVWGQGTLVTVSS | binds
15 | 1C12 (anti-huSOX2 VHH antibody clone) (VHH, Clone from the VHH phage library panning; tested as individual colony in ELISA screening) VHH: EVQLVESGGGLVQPGGSLRLSCAASGSTYTTYSMGWFRQAPGKEREFVAAIRWSGGSTHYADSVKGRFTISADNSKNTAYLQMNSLKPEDTAVYYCASRVDDRVWGQGTLVTVSS | binds
16 | 1C11 (anti-huSOX2 VHH antibody clone) (VHH, Clone from the VHH phage library panning; tested as individual colony in ELISA screening) VHH: EVQLVESGGGLVQPGGSLRLSCAASGSTYTTYSMGWFRQAPGKEREFVGAIRWSGGTTYYADSVKGRFTISADNSKNTAYLQMNSLKPEDTAVYYCASRVDDRVWGQGTLVTVSS | binds

Biological target: T3, human SRY-box transcription factor 2 …
Test: selection from a naive sdAb phage display library, three rounds of panning

Row | Binder | binding result
17 | 3F11 (anti-huSOX2 VHH antibody) (VHH, Selected from a naive sdAb phage display library (Genscript Probio)) VHH: DVQLVESGGGLVQPGGSLRLSCATSGFTFSSSTMSWVRQVPGAGPEWVAVDNPGGKKNYIDSVAGRFTIARDNDANSLSLVMNGLRPEDTARYFCARVLSFKIYEGDKWALEWDYRGPGTQVTVSS | binds

Biological target: CynoSOX2 with C-terminal 6×His-tag, produced by Biointron (cyno, UniProt P48431 45-317 (human entry), limits assumed)
Sequence (P48431 other isoform, or with tags, fused parts or gaps limits assumed): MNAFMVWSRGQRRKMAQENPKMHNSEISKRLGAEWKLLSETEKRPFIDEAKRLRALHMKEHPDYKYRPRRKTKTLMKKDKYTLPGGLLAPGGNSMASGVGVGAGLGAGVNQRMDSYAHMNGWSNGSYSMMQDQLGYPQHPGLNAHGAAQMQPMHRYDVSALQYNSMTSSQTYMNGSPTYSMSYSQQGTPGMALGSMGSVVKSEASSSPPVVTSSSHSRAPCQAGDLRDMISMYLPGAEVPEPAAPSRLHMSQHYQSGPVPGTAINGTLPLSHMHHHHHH
Test: as above

Row | Binder | binding result
18 | 3F11 (anti-huSOX2 VHH antibody) (VHH, Selected from a naive sdAb phage display library (Genscript Probio)) VHH: DVQLVESGGGLVQPGGSLRLSCATSGFTFSSSTMSWVRQVPGAGPEWVAVDNPGGKKNYIDSVAGRFTIARDNDANSLSLVMNGLRPEDTARYFCARVLSFKIYEGDKWALEWDYRGPGTQVTVSS | binds

Biological target: T1, huSOX3 with C-terminal 6×His-tag, …
Test: as above

Row | Binder | binding result
19 | 3F11 (anti-huSOX2 VHH antibody) (VHH, Selected from a naive sdAb phage display library (Genscript Probio)) VHH: DVQLVESGGGLVQPGGSLRLSCATSGFTFSSSTMSWVRQVPGAGPEWVAVDNPGGKKNYIDSVAGRFTIARDNDANSLSLVMNGLRPEDTARYFCARVLSFKIYEGDKWALEWDYRGPGTQVTVSS | no binding

Source: patent EP4810513A1 (Genexine, Inc., dated 2026)
